Experimental data taken from article PMC8217473 (2021).
Where two headings read alike, the source gives them in different places.

What was measured:
[1] = target: T1, RBD-Fc (receptor binding domain of SARS-CoV-2 spike fused to Fc) (SARS-CoV-2, UniProt P0DTC2); assay: SPR
[2] = target: T1, RBD-Fc (receptor binding domain of …); assay: SPR; remark: listed apart in the source

B1: 3N39 mutant sACE2-His (domain or fragment)
chain: QSTIEEQVETFLDNFNHKAEDLFYQSSLASWNYNTNITEENVQNMNIAGDKWSAFLKEQSTFAQMYPLQEIQHLTVKLQLQALQQNGSSVLSEDKSKRLNTILNTMSTIYSTGKVCNPDNPQECLLLEPGLNEIMANSLDYNERLWAWESWRSEVGKQLRPLYEEYVVLKNEMARANHYEDYGDYWRGDYEVNGVDGYDYSRGQLIEDVEHTFEEIKPLYEHLHAYVRAKLMNAYPSYISPIGCLPAHLLGDMWGRFWTNLYSLTVPFGQKPNIDVTDAMVDQAWDAQRIFKEAEKFFVSVGLPNMTQGFWENSMLTDPGNVQKAVCHPTAWDLGKGDFRILMCTKVTMDDFLTAHHEMGHIQYDMAYAAQPFLLRNGANEGFHEAVGEIMSLSAATPKHLKSIGLLSPDFQEDNETEINFLLKQALTIVGTLPFTYMLEKWRWMVFKGEIPKDQWMKKWWEMKREIVGVVEPVPHDETYCDPASLFHVSNDYSFIRYYTRTLYQFQFQEALCQAAKHEGPLHKCDISNSTEAGQKLFNMLRLGKSEPWTLALENVVGAKNMNVRPLLNYFEPLFTWLKDQNKNSFVGWSTDWSPYAD
[1]
  Kd: 0.29 nM
[2]
  Kd: 0.32 nM

B2: 3N39v2 mutant sACE2-His (domain or fragment)
chain: QSTIEEQVKTFLDNFNHKAEDLFYQSSLASWNYNTNITEENVQNMNNAGDKWSAFLKEQSTFAQMYPLQEIQNLTVKLQLQALQQNGSSVLSEDKSKRLNTILNTMSTIYSTGKVCNPDNPQECLLLEPGLNEIMANSLDYNERLWAWESWRSEVGKQLRPLYEEYVVLKNEMARANHYEDYGDYWRGDYEVNGVDGYDYSRGQLIEDVEHTFEEIKPLYEHLHAYVRAKLMNAYPSYISPIGCLPAHLLGDMWGRFWTNLYSLTVPFGQKPNIDVTDAMVDQAWDAQRIFKEAEKFFVSVGLPNMTQGFWENSMLTDPGNVQKAVCHPTAWDLGKGDFRILMCTKVTMDDFLTAHHEMGHIQYDMAYAAQPFLLRNGANEGFHEAVGEIMSLSAATPKHLKSIGLLSPDFQEDNETEINFLLKQALTIVGTLPFTYMLEKWRWMVFKGEIPKDQWMKKWWEMKREIVGVVEPVPHDETYCDPASLFHVSNDYSFIRYYTRTLYQFQFQEALCQAAKHEGPLHKCDISNSTEAGQKLFNMLRLGKSEPWTLALENVVGAKNMNVRPLLNYFEPLFTWLKDQNKNSFVGWSTDWSPYAD
[2]
  Kd: 0.54 nM
